In PMC5454376 (2017):

B1: Human His-Gαi3 WT [human] / Fluorescein-labelled RGS12 GoLoco peptide (residues 1,185–1,221) [modified: 5,6-carboxyfluorescein coupled to the resin-bound peptide after chain elongation; 5,6-carboxyfluorescein coupled to the resin-bound … (parent complex)
chain 1: MGCTLSAEDKAAVERSKMIDRNLREDGEKAAKEVKLLLLGAGESGKSTIVKQMKIIHEDGYSEDECKQYKVVVYSNTIQSIIAIIRAMGRLKIDFGEAARADDARQLFVLAGSAEEGVMTPELAGVIKRLWRDGGVQACFSRSREYQLNDSASYYLNDLDRISQSNYIPTQQDVLRTRVKTTGIVETHFTFKDLYFKMFDVGGQRSERKKWIHCFEGVTAIIFCVALSDYDLVLAEDEEMNRMHESMKLFDSICNNKWFTETSIILFLNKKDLFEEKIKRSPLTICYPEYTGSNTYEEAAAYIQCQFEDLNRRKDTKEIYTHFTCATDTKNVQFVFDAVTDVIIKNNLKECGLY
chain 2: DEAEEFFELISKAQSNRADDQRGLLRKEDLVLPEFLR

Variants of: B1
Assay: fluorescence polarisation

| Kd [nM] | Variant |
| --- | --- |
| 63 | chain 1 W258F |
| 119 | chain 1 L36A |
| 80 | chain 1 L37A |
| 86 | chain 1 K257A |
| 551 | chain 1 F215A |
| 83 | chain 1 I184A |
| 176 | chain 1 L39A |
| 77 | chain 1 N256A |
